Tests used:
THP1 cells [1] = assay: Internalization of pHrodo red labelled bi-specific Ab in THP1 cells; assay type: cell-based; details: pHrodo red labelled Ab 1 ug/ml 30 min; differentiated THP1, LPS then ATP; confocal; FIG. 35A
Protocol: Internalization of Inflamab—see FIG. 35. THP1 cells, for FIG. 35, were cultured in 96-well plates at 100,000cells/200 ul complete media. Differentiation of THP1 cells was induced by PMA (100 ug/ml for 72 hours). Following 24 hours of rest, differentiated THP1 cells were stimulated with LPS (1 ug/ml) for 3 hours, treated with a pHrodo red labelled IL-1r/NLRP3 Ab (1 ug/ml) for 30 minutes, followed by ATP (5 mM) for 1 hour. The internalization of the Ab was tracked using a pHrodo red labelled bi-specific Ab that only fluoresces when internalized.

[2] = test system: Bone Marrow Derived Macrophages (BMDMs); assay: Inflammasome activation assay in bone marrow derived macrophages (cytokine ELISA); assay type: cell-based, C57BL/6 mice; details: murine BMDMs, FIG. 36
Protocol: Bone marrow cells were isolated from the tibias and femurs of C57BL/6 mice. To obtain bone marrow-derived dendritic cells (BMDCs), cells were cultured for 7 days at 37° C. and 5% CO2 in Iscove's modified Dulbecco's medium (IMDM) supplemented with 8% fetal calf serum (FCS), 1% penicillin/streptomycin (GE Healthcare Life Sciences, Marlborough, MA, USA), 1% glutamax (Thermo Fisher Scientific, Waltham, MA, USA) and 20 μM β-mercaptoethanol (Sigma-Aldrich, St. Louis, MO, USA) in the presence of 20 ng/mL gm-CSF (Preprotech, Rocky Hill, NJ, USA). To obtain bone marrow-derived macrophages (BMDMs), cells were cultured for 7 days in Roswell Park Memorial Institute medium (RPMI) supplemented with 10% FCS, 100 U/mL penicillin/streptomycin, 0.1 mM nonessential amino acids, 1% pyruvate and 2 mM L-glutamine (Thermo Fisher Scientific) in the presence of 20 ng/mL m-CSF (eBioscience)
For in vitro stimulation, 0.1×10^6 cells per well were added to 96-well flat-bottom plates (Greiner Bio-One, Kremsmunster, Austria). Cells were first primed with LPS (50 ng/mL) for 2 hours, after which cholesterol crystals (2 mg/mL) were added in the presence or absence of MCC950 (1 μM, Adipogen, San Diego, US) for an additional 4 hours. […]
InflaMab inhibits IL-1beta secretion in BMDMs—see FIG. 36. […] IL-1β release was measured in the supernatant by ELISA.

THP1 cells [3] = assay: IL-1β release from LPS/ATP-stimulated differentiated THP1 cells (ELISA); assay type: cell-based; details: PMA-differentiated THP1; LPS 1 μg/ml 3 h, Ab 30 min (0.0025-2.5 ng/ml or 1 nM), ATP 5 mM 1 h; supernatant ELISA; FIG. 33
Protocol: THP1 cells, for FIGS. 33a and b, were cultured in 96-well plates at 100,000 cells/200 μl complete media. PMA (100 μg/ml for 72 hours) was used to differentiate THP-1 cells into macrophages. Following 24 hours of rest, differentiated THP1 cells were stimulated with LPS (1 μg/ml) for 3 hours, treated with MCC950 (1 μM) or the IL-1R1/NLRP3 Ab in a dose dependent fashion from 0.0025 ng/ml to 2.5 ng/ml for FIG. 33a or with IL-1R1/NLRP3 Ab (1 nM) for FIG. 33b or with IgG control antibody for 30 minutes, followed by ATP (5 mM) for 1 hour. IL-1β release was measured in the supernatant by ELISA.

B1: InflaMab: 210 kDa bispecific mouse antibody to IL-1R1 and NLRP3; light chain SEQ ID NO: 57, heavy chain with scFv SEQ ID NO: 59 (protein)
light: MVSSAQFLGLLLLCFQGTRCDIVMTQSPATLSVTPGDRVSLSCRASQSISDYLSWYQQRSHESPRLIIKYASQSISGIPSRFSGSGSGSDFTLSINSVEPEDVGVYYCQHGHSFPLTFGSGTKLELKRADAAPTVSIFPPSSEQLTSGGASVVCFLNNFYPKDINVKWKIDGSERQNGVLNSWTDQDSKDSTYSMSSTLTLTKDEYERHNSYTCEATHKTSTSPIVKSFNRNEC
heavy: MGWTLVFLFLLSVTAGVHSQIQLVQSGPELRKPGETVRISCKASGYPFTTAGLQWVQKMSGKGLKWIGWMNTQSEVPKYAEEFKGRIAFSLETAASTAYLQINNLKTEDTATYFCAKSVYFNWRYFDVWGAGTTVTVSSAKTTAPSVYPLAPVCGDTTGSSVTLGCLVKGYFPEPVTLTWNSGSLSSGVHTFPAVLQSDLYTLSSSVTVTSSTWPSQSITCNVAHPASSTKVDKKIEPRGPTIKPCPPCKCPAPNLLGGPSVFIFPPKIKDVLMISLSPIVTCVVVDVSEDDPDVQISWFVNNVEVHTAQTQTHREDYNSTLRVVSALPIQHQDWMSGKEFKCKVNNKDLPAPIERTISKPKGSVRAPQVYVLPPPEEEMTKKQVTLTCMVTDFMPEDIYVEWTNNGKTELNYKNTEPVLDSDGSYFMYSKLRVEKKNWVERNSYSCSVVHEGLHNHHTTKSFSRTPGKGSAGGSGGDSEVQLVESGGGLVKPGGSLKLSCAASGFTFSDYYMYWVRQTPEKRLEWVATISDGGTYTYYPDSVKGRFTISRDNAKNNLYLQMNSLKSEDTAMYYCARGWVSTMVKLLSSFPYWGQGTLVTVSAGGGGSGGGGSGGGGSQAVVTQESALTTSPGETVTLTCRSSTGAVTTSNYANWVQEKPDHLFTGLIGGTNNRAPGVPARFSGSLIGDKAALTITGAQTEDEAIYFCALWYSNYWVFGGGTKLTVLGQPK
- internalization of the Ab (THP1 cells [1]): shows the internalization
- secretion of TNFalpha ([2]; same cells, specificity): no effect
- IL-1beta secretion ([2]; LPS 50 ng/ml, Inflamab 30 min, Alum 50 μg/ml 1 h, ELISA): dose-dependently inhibit
- IL-1β release (THP1 cells [3]): prevents

— patent US12264201B2, “Bispecific antibody targeting IL-1R1 and NLPR3” (University of Ulster, priority 2018, dated 2025)
